Assay results: patent publication US20130034559A1 (AstraZeneca / MedImmune, published 2013)

How the values were obtained:
[1] = target: T1, extracellular domain of human PD-L2 (R&D Systems, 1224-PL) (human, UniProt Q9BQ51 20-220); assay: ELISA, biotinylated IgG1-TM on coated ECD
T1 construct: extracellular domain; Bought
T1 sequence (looked up): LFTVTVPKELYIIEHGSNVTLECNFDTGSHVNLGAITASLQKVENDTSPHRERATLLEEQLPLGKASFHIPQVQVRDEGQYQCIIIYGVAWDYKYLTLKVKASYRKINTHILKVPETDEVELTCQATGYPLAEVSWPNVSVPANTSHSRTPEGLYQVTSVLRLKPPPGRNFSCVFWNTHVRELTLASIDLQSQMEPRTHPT
Protocol: (§1) ELISAs were performed to determine the cross-reactivity of the anti-B7-H1 IgG1-TM antibodies for other immune co-modulatory molecules. […] Murine cross reactivity was also investigated by coating the ECD of murine B7-H1 (R&D Systems, 1019-B7). Biotinylated anti-B7-H1 IgG1-TM diluted at 100 nM in PBS containing 3% dried milk powder, were incubated at room temperature for 2 h to allow binding. Bound biotinylated IgGs were detected with europium N1-labelled streptavidin (Perkin Elmer, 1244-360) at 0.2 ug/mL. […] Primary antibodies were incubated at 5 ug/mL in PBS containing 3% dried milk powder for 2 h at room temperature. Detection was carried out by incubating the secondary antibody anti-mouse IgG Peroxidase conjugate (Sigma, A2554) or anti-rat IgG Peroxidase conjugate (Sigma, A5795) diluted 1:5000 in PBS containing 3% dried milk powder for 1 h at room temperature and subsequent addition of TMB (Sigma, T0440). […] Non-specific binding was determined using wells coated with the IgG1 isotype control at 5 ug/mL. Cross reactivities were calculated at a percent of the specific binding to the antigen relative to human B7-H1.

[2] = target: T2, human PD-1/Fc protein (R&D Systems, catalog #1086-PD) (human, UniProt Q15116 25-170); assay: ELISA, biotinylated IgG1-TM on coated ECD
T2 construct: extracellular domain; Bought; not shown: Fc portion
T2 sequence (Q15116 25-170): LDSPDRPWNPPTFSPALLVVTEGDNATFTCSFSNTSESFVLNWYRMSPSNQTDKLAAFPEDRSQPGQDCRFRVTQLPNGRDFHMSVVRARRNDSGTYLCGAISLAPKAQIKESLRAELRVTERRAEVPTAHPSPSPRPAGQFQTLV
Protocol: as §1

[3] = target: T3, extracellular domain of human CD28 (R&D Systems, 342-CD) (human, UniProt P10747 19-152); assay: ELISA, biotinylated IgG1-TM on coated ECD
T3 construct: extracellular domain; Bought
T3 sequence (P10747 19-152): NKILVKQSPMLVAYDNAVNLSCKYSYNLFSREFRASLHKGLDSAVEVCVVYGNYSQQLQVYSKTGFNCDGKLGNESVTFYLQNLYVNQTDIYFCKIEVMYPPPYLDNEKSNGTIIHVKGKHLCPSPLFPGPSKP
Protocol: as §1

[4] = target: T4, extracellular domain of human B7-H2 (R&D Systems, 165-B7) (human, UniProt O75144 19-256); assay: ELISA, biotinylated IgG1-TM on coated ECD
T4 construct: extracellular domain; Bought
T4 sequence (looked up): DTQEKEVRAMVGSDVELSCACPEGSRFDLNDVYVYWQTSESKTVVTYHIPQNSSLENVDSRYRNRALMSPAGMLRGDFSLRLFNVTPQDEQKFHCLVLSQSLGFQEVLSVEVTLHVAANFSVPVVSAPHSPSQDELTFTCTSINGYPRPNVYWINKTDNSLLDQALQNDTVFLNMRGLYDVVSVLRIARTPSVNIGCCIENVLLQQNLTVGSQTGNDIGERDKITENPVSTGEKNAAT
Protocol: as §1

[5] = target: T5, extracellular domain of human CTLA-4 (R&D Systems, 325-CT) (human, UniProt P16410 36-161); assay: ELISA, biotinylated IgG1-TM on coated ECD
T5 construct: extracellular domain; Bought
T5 sequence (looked up): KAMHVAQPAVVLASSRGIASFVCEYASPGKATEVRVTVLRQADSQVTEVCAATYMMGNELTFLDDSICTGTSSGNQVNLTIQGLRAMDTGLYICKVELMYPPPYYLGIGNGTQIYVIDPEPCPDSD
Protocol: as §1

[6] = target: T6, recombinant monomeric human B7-H1 FlagHis10 extracellular domain (human, UniProt Q9NZQ7 19-238); assay: SPR (BIAcore T100), IgG captured via protein G, monomeric B7-H1 ECD as analyte, 25 °C, 1:1 model
T6 construct: extracellular domain; also called HIS FLAG tagged human B7-H1; HIS FLAG tagged B7-H1; not shown: FlagHis10 tag
T6 sequence (Q9NZQ7 19-238): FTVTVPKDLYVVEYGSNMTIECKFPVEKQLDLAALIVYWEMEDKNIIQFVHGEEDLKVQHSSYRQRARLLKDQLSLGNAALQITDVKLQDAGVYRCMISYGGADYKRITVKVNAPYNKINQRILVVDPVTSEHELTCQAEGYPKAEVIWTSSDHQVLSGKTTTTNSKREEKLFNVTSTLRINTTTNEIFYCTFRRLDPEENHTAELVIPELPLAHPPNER
Protocol: The binding affinity and kinetic parameters of anti-B7-H1 antibodies in the IgG1-TM format to monomeric human and cynomologus B7-H1 were determined by surface plasmon resonance using a BIAcore T100 instrument (BIAcore, Uppsala, Sweden). In brief, experiments were performed at 25° C. using HBS-EP buffer (10 mM HEPES, 150 mM NaCl, 3 mM EDTA, 0.05% v/v surfactant P20) as running buffer. IgGs were affinity captured on the surface of a CM5 sensor chip (BIAcore) via protein G, which was amine coupled onto the CM5 surface to achieve the density of ˜500 Response Units (RU), according to the manufacturer's instructions (BIAapplications Handbook, BIAcore). Recombinant monomeric human or cynomologus B7-H1 FlagHis₁₀ extracellular domains (ECDs) were used as analytes. […] All measurements were baseline corrected by subtracting the sensorgram obtained with the control (activated-deactivated) flow cell, as well as double referenced with blank (zero analyte concentration) injections. Data were analyzed using the T-100 BIAevaluation software package and fitted to a simple 1:1 Langmuir binding model with local Rₘₐₓ and bulk refractive index set to 0. Data were calculated from at least two independent experiments. Mass transport effects were limited by keeping the level of affinity-captured IgGs below 250 RU.

B7H1_F19G = target: T7, B7H1_F19G (human, UniProt Q9NZQ7 19-238); assay: HTRF competition: untagged B7-H1 sample against HIS FLAG tagged human B7-H1 for labelled antibody
T7 construct: range 19-238; also called human B7-H1 extracellular domain mutant F19G
T7 sequence (Q9NZQ7 19-238 F19G limits assumed): as the sequence (Q9NZQ7 19-238) above, with F1G counted along it
Protocol: (§2) The HTRF® competition assays measured the binding of anti-B7-H1 antibody to HIS FLAG tagged B7-H1. Titration of non tagged B7-H1 samples, prepared as described above, will compete with HIS FLAG tagged B7-H1 for binding to anti-B7-H1 antibody, leading to a reduction in assay signal. […] 10 μl of B7-H1 sample was added to a 384 well low volume assay plate (Corning 3673). […] Assay plates were incubated for 4 hours at room temperature prior to reading time resolved fluorescence at 620 nm and 665 nm emission wavelengths using an EnVision plate reader (Perkin Elmer).

B7H1_R113Y = target: T8, B7H1_R113Y (human, UniProt Q9NZQ7 19-238); assay: as above
T8 construct: range 19-238; also called human B7-H1 extracellular domain mutant R113Y
T8 sequence (Q9NZQ7 19-238 R113Y limits assumed): as the sequence (Q9NZQ7 19-238) above, with R95Y counted along it
Protocol: as §2

B7H1_R113L = target: T9, B7H1_R113L (human, UniProt Q9NZQ7 19-238); assay: as above
T9 construct: range 19-238; also called human B7-H1 extracellular domain mutant R113L
T9 sequence (Q9NZQ7 19-238 R113L limits assumed): as the sequence (Q9NZQ7 19-238) above, with R95L counted along it
Protocol: as §2

B7H1_F19A = target: T10, B7H1_F19A (human, UniProt Q9NZQ7 19-238); assay: as above
T10 construct: range 19-238; also called human B7-H1 extracellular domain mutant F19A
T10 sequence (Q9NZQ7 19-238 F19A limits assumed): as the sequence (Q9NZQ7 19-238) above, with F1A counted along it
Protocol: as §2

B1: 2.7A4OPT (antibody, V domains shown)
VH: EVQLVESGGGLVKPGGSLRLSCAASGFTFSTYSMNWVRQAPGKGLEWVSSISSSGDYIYYADSVKGRFTISRDNAKNSLYLQMNSLRAEDTAVYYCARDLVTSMVAFDYWGQGTLVTVSS
VL: SYELTQPPSVSVSPGQTARITCSGDALPQKYVFWYQQKSGQAPVLVIYEDSKRPSGIPERFSGSSSGTMATLTISGAQVEDEADYYCYSTDRSGNHRVFGGGTKLTVL
notes: Germlined variable domains; human IgG1-TM (L234F, L235E, P331S), lambda; also called 2.7A4OPT IgG1-TM
B1: no binding (tested: 100 nM) [1]; no binding (tested: 100 nM) [2]; no binding (tested: 100 nM) [3]. For the same binder, the binding result [4] was “no binding (tested: 100 nM)”, the binding result [5] was “no binding (tested: 100 nM)” and the Kd [6] was 1 nM. For the same binder, the koff [6] was 0.0012 s⁻¹, the kon [6] was 1.24e+06 M⁻¹ s⁻¹ and the binding result (B7H1_F19G) was “no binding”. B1: no binding (B7H1_R113Y); no binding (B7H1_R113L); no binding (B7H1_F19A).
